{"source": "patent US20090124546A1", "about": "(EBERHARD KARLS UNIVERSITAET TUEBINGEN UNIVERSITAETSKILINIKUM, published 2009)", "molecular_target": "the molecule itself", "test": "SDS-PAGE and Western blot of synthetic peptide (self-association)", "procedure": "Western blot analysis. After physical exercise sweat of the forehead was collected and analyzed by Western blot as already described (Rieg, S. et al. 2006 J. Investig. Dermatol. 126:354-365). Briefly, sweat was centrifuged 3 min at 13,000 rpm (16,000×g) to remove particles and frozen. Then, 15-μl portions of the samples and 4 μg of the DCD peptides LEK-45 and DCD-1L dissolved in water were separated by sodium dodecyl sulfate-polyacrylamide gel electrophoresis (using 15% acrylamide with 0.05% bisacrylamide), transferred electrophoretically (1200 mA/h) onto polyvinylidene difluoride membrane sheets (Immobilon-PSQ; Millipore, Germany) with a tank type blotter and then blocked in 10% nonfat milk in PBS (pH 7.4) for 30 min at room temperature. After incubation with a rabbit polyclonal anti-DCD antibody (1:2,000) that detects the C terminus of DCD-1L overnight at 4° C., the membrane sheets were washed with phosphate buffer and incubated with an anti-rabbit secondary biotin-conjugated polyclonal antibody (1:1,500 in blocking solution). After washing in phosphate buffer the Streptavidin-AP-conjugate (Roche, Mannheim, Germany) was used for the detection of biotin-labeled secondary antibody. The membrane was immersed in CDP-Star solution (Western Lightning chemiluminescence reagents for AP; Roche) for 10 min and then exposed to X-ray film (Eastman Kodak, Rochester, N.Y.)."}
{"protein": "LEKGLDGAKKAVGGLGKLGKDAVEDLESVGKGAVHDVKDVLDSVL", "note": "[LEK-45]", "values": [{"measurement": "binding result", "result": "binds"}]}
{"protein": "SSLLEKGLDGAKKAVGGLGKLGKDAVEDLESVGKGAVHDVKDVLDSVL (also called synthetic peptide DCD-1L)", "note": "[DCD-1L]", "values": [{"measurement": "binding result", "result": "binds"}]}
